Assay results reported in article PMC4214742, “Crystal Structure of Human Protein N-Terminal Glutamine Amidohydrolase, an Initial Component of the N-End Rule Pathway” (PLoS ONE, 2014).

Biological target: the molecule itself
Assay: crystal structure; SAD phasing, 1.5 Å; hanging-drop vapor diffusion at 291 K, 10 mg/ml Se-Met protein, well solution 1% ethylene glycol, 1.8 M ammonium sulfate, 100 mM MES pH 6.0; space group P212121; contact between symmetry-related molecules in the crystal

B1: human protein N-terminal glutamine amidohydrolase isoform 1 (hNtaq1) (enzyme)
chain: not shown
modifications: Se-Met labeled (selenomethionine in place of methionine)
notes: human N-terminal glutamine amidohydrolase isoform 1, encoded by the C8orf32 gene; 205 amino acids (Ser1 to Cys205), initial Met replaced by Ser after TEV cleavage; 202 residues modeled, Lys203, Asn204 and Cys205 disordered; Cloned by Gateway into pVP16 with N-terminal (His)6-MBP and a TEV site; also called human Ntaq1; not shown: His6, N-terminal, cleaved; MBP, N-terminal, cleaved
  binding result: binds
